Assay results published in patent US11141452 (dated 2021).
Non-standard residues stand in square brackets, D forms with d. No end group written: not given here. *: point of attachment. NH(3,5-(CF3)2-benzyl) = FC(F)(F)c1cc(CN*)cc(C(F)(F)F)c1; NMePhe(4-F) = CN[C@@H](Cc1ccc(F)cc1)C(=O)O; Phe(4-F) = N[C@@H](Cc1ccc(F)cc1)C(=O)O; Dmt = Cc1cc(O)cc(C)c1C[C@H](N)C(=O)O; NMeF = CN[C@@H](Cc1ccccc1)C(=O)O; NHBn = c1ccc(CN*)cc1

T1: human NK1 receptor (human, UniProt P25103)
T1 chain: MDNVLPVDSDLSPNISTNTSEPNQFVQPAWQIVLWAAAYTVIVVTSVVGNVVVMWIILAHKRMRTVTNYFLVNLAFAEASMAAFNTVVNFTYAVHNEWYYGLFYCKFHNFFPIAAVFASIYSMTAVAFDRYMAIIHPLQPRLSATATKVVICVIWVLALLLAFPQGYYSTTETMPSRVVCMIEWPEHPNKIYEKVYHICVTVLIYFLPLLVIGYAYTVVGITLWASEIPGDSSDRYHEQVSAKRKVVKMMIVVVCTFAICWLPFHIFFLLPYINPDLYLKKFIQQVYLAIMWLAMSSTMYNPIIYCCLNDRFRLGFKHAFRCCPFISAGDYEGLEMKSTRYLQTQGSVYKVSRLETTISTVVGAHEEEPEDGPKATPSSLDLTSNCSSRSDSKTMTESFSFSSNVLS

T2: delta opioid receptor (DOR) (UniProt P41143)
T2 chain: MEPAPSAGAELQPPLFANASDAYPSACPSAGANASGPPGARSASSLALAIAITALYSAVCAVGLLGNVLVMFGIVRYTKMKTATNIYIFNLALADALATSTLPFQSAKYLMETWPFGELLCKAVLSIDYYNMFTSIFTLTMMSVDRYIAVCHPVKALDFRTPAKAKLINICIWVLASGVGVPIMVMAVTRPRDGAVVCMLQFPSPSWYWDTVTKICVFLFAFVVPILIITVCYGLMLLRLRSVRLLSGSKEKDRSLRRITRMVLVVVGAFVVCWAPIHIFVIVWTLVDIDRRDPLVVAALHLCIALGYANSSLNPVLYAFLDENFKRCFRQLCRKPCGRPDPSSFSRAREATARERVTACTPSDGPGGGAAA

T3: rat NK1 receptor (rat, UniProt P14600)
T3 chain: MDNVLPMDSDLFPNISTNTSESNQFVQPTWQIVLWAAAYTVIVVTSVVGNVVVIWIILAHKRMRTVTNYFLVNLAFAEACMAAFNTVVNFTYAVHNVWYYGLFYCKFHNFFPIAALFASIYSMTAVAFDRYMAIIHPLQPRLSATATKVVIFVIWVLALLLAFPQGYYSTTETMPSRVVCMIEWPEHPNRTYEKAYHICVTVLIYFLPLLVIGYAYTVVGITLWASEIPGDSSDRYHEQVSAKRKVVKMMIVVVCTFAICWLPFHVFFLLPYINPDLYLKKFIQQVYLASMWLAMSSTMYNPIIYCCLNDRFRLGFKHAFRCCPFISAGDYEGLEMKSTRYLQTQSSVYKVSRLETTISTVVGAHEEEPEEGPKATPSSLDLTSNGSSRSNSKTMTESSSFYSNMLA


Biological target: T1, human NK1 receptor
Assay: competition

| Binder | Ki [nM] |
| --- | --- |
| [Dmt][dA]FGYPLW (not fully specified (C-terminus)) [AKG118] | 2.34 |

Biological target: T2, delta opioid receptor (DOR)
Assay: competition

| Binder | Ki [nM] |
| --- | --- |
| XAGFPLW (Dmt1, D-Ala2; C-terminal NH-Bn(3',5'-(CF3)2)) [AKG116] | 1 |
| Y[dA]G[NMeF]PLW-{NH(3,5-(CF3)2-benzyl)} [AKG117] | 237 |
| XAGFPLW (Dmt1, D-Ala2, Phe(4-F)4; C-terminal NH-Bn(3',5'-(CF3)2)) [AKG127] | 1 |

Biological target: T3, rat NK1 receptor
Assay: competition

| Binder | Ki [nM] |
| --- | --- |
| XAGFPLW (Dmt1, D-Ala2; C-terminal NH-Bn(3',5'-(CF3)2)) [AKG116] | 26.9 |
| Y[dA]G[NMeF]PLW-{NH(3,5-(CF3)2-benzyl)} [AKG117] | 61.1 |
| XAGFPLW (Dmt1, D-Ala2, Phe(4-F)4; C-terminal NH-Bn(3',5'-(CF3)2)) [AKG127] | 29.4 |

Biological target: T3, rat NK1 receptor
Assay: competition
Remark: another data set of the same source

| Binder | Ki [nM] |
| --- | --- |
| YPFFPLW [AKG226] | 31.7 |
| YPFFPLW [AKG222] | 32.4 |
| YPFFPLW [AKG224] | 33.7 |

The binders below were run against mu opioid receptor (MOR) (UniProt P35372) (assay: competition).
mu opioid receptor (MOR), sequence (P35372 whole entry): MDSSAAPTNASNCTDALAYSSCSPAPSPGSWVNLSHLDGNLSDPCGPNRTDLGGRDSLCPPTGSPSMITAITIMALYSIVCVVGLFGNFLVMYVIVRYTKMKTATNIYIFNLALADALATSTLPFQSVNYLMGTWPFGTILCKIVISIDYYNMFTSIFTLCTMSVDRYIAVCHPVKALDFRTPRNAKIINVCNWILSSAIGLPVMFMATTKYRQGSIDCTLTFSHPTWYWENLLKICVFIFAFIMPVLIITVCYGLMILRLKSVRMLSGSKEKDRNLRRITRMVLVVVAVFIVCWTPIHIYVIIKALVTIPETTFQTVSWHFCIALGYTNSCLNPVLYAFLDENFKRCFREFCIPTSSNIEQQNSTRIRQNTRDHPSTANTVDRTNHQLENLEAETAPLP

| Binder | Ki [nM] |
| --- | --- |
| [Dmt][dA]FGYPLW (not fully specified (C-terminus)) [AKG118] | 1 |

Biological target: mu opioid receptor (MOR) (UniProt P35372)
Assay: competition
Remark: another data set of the same source

| Binder | Ki [nM] |
| --- | --- |
| Y[dA]GF[dN]PLW-NHBn [AKG102] | 90 |
| Y[dA]G[NMePhe(4-F)]QPLW-NHBn [AKG143] | 2 |
| Y[dA]GF[dQ]PLW (not fully specified (C-terminus)) [AKG103] | 116 |
| Y[dA]GFNPLW (not fully specified (C-terminus)) [AKG104] | 51 |
| Y[dA]G[Phe(4-F)]QPLW-NHBn [AKG142] | 8 |
| Y[dA]G[NMeF]QPLW (not fully specified (C-terminus)) [AKG129] | 7 |
| Y[dA]GFQPLW (not fully specified (C-terminus)) [AKG105] | 38 |

Biological target: T1, human NK1 receptor
Assay: competition
Remark: another data set of the same source

| Binder | Ki [nM] |
| --- | --- |
| XAGFPLW (Dmt1, D-Ala2; C-terminal NH-Bn(3',5'-(CF3)2)) [AKG116] | 1.4 |
| Y[dA]G[NMeF]PLW-{NH(3,5-(CF3)2-benzyl)} [AKG117] | 3.35 |
| XAGFPLW (Dmt1, D-Ala2, Phe(4-F)4; C-terminal NH-Bn(3',5'-(CF3)2)) [AKG127] | 0.88 |

Biological target: mu opioid receptor (MOR) (UniProt P35372)
Assay: competition
Remark: another data set of the same source

| Binder | Ki [nM] |
| --- | --- |
| XAGFPLW (Dmt1, D-Ala2; C-terminal NH-Bn(3',5'-(CF3)2)) [AKG116] | 3 |
| Y[dA]G[NMeF]PLW-{NH(3,5-(CF3)2-benzyl)} [AKG117] | 27 |
| XAGFPLW (Dmt1, D-Ala2, Phe(4-F)4; C-terminal NH-Bn(3',5'-(CF3)2)) [AKG127] | 1 |

Biological target: T2, delta opioid receptor (DOR)
Assay: competition
Remark: another data set of the same source

| Binder | Ki [nM] |
| --- | --- |
| Y[dA]GF[dN]PLW-NHBn [AKG102] | 54 |
| Y[dA]G[NMePhe(4-F)]QPLW-NHBn [AKG143] | 0.7 |
| Y[dA]GFNPLW (not fully specified (C-terminus)) [AKG104] | 17 |
| Y[dA]G[Phe(4-F)]QPLW-NHBn [AKG142] | 2 |
| Y[dA]G[NMeF]QPLW (not fully specified (C-terminus)) [AKG129] | 1 |
| Y[dA]GFQPLW (not fully specified (C-terminus)) [AKG105] | 9 |

Biological target: T2, delta opioid receptor (DOR)
Assay: competition
Remark: another data set of the same source

| Binder | Ki [nM] |
| --- | --- |
| [Dmt][dA]FGYPLW (not fully specified (C-terminus)) [AKG118] | 3 |

Biological target: T3, rat NK1 receptor
Assay: competition
Remark: another data set of the same source

| Binder | Ki [nM] |
| --- | --- |
| Y[dA]GF[dN]PLW-NHBn [AKG102] | 133 |
| Y[dA]G[NMePhe(4-F)]QPLW-NHBn [AKG143] | 21.7 |
| Y[dA]GF[dQ]PLW (not fully specified (C-terminus)) [AKG103] | 106 |
| Y[dA]GFNPLW (not fully specified (C-terminus)) [AKG104] | 20.2 |
| Y[dA]GFQPLW (not fully specified (C-terminus)) [AKG105] | 12.5 |

Biological target: T1, human NK1 receptor
Assay: competition
Remark: another data set of the same source

| Binder | Ki [nM] |
| --- | --- |
| Y[dA]GF[dN]PLW-NHBn [AKG102] | 2.26 |
| Y[dA]G[NMePhe(4-F)]QPLW-NHBn [AKG143] | 3.2 |
| Y[dA]GF[dQ]PLW (not fully specified (C-terminus)) [AKG103] | 2.71 |
| Y[dA]GFNPLW (not fully specified (C-terminus)) [AKG104] | 1.16 |
| Y[dA]G[Phe(4-F)]QPLW-NHBn [AKG142] | 5.71 |
| Y[dA]G[NMeF]QPLW (not fully specified (C-terminus)) [AKG129] | 0.83 |
| Y[dA]GFQPLW (not fully specified (C-terminus)) [AKG105] | 0.92 |

Biological target: T3, rat NK1 receptor
Assay: competition
Remark: another data set of the same source

| Binder | Ki [nM] |
| --- | --- |
| [Dmt][dA]FGYPLW (not fully specified (C-terminus)) [AKG118] | 25.4 |

Biological target: T1, human NK1 receptor
Assay: competition
Remark: another data set of the same source

| Binder | Ki [nM] |
| --- | --- |
| YPFFPLW [AKG226] | 5.9 |
| YPFFPLW [AKG222] | 4.19 |
| YPFFPLW [AKG224] | 3.39 |
